The results in this text go back to US20200297818A1 (ZEALAND PHARMA A S, published 2020).

*1 amine or outer side, *2 acyl side, *3 side chain or, on linkers, in order; H or OH if unused. Side-chain parts run from the residue outwards. [ ]: non-standard residue; d: D form. The star is where a group is joined. C20 diacid = O=C(O)CCCCCCCCCCCCCCCCCCC(=O)*; C18 diacid = O=C(O)CCCCCCCCCCCCCCCCC(=O)*; γGlu = O=C(O)[C@H](CCC(=O)[*:2])N[*:1]; AEEA = NCCOCCOCC(=O)O; Aib = CC(C)(N)C(=O)O

In test [1] the target is T1, human GLP-2 receptor (hGLP2-R) (human, UniProt O95838 1-553).
T1 sequence (looked up): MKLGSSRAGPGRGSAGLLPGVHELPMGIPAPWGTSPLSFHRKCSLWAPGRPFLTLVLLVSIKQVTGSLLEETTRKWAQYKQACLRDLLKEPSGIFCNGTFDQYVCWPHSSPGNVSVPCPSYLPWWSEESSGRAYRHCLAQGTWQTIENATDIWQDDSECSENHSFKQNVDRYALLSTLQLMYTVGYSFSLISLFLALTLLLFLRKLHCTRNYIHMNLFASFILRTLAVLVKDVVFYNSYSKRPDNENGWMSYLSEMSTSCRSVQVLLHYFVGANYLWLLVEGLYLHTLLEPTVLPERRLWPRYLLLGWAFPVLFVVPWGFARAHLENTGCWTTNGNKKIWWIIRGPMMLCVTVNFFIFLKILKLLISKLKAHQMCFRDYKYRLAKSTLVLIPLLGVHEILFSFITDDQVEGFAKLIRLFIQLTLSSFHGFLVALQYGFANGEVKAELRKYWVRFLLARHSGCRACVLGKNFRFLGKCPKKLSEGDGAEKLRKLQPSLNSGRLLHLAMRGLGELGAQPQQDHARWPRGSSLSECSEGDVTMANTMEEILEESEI
Kind of test: cell-based or functional assay.

Test [2] concerns the target human glucagon-like peptide 1 receptor (GLP-1 R) (human, UniProt P43220 24-463). Kind of test: cell-based or functional assay.

With H-H[Aib]EGSFTSEK([AEEA-AEEA-Lys-Glu-Lys-γGlu-C20 diacid])ATILDEQAARDFIAWLIEHKITD-OH [Compound 55], the “EC50 GLP-2 (nM); cAMP response” value in test [1] is 0.78 nM. Moreover, the “EC50 GLP-1 (nM); cAMP response” value in test [2] is 0.11 nM.

Consider H-H[Aib]EGTFTSEK([AEEA-Lys-Glu-Lys-γGlu-C20 diacid])ATILDEQAARDFIAWLIEHKITD-OH [Compound 54], for which, in test [1], the “EC50 GLP-2 (nM); cAMP response” value was found to be 0.99 nM. Further, the “EC50 GLP-1 (nM); cAMP response” value in test [2] is 0.034 nM.

B1: Compound 1 (peptide)
peptide: HXEGTFSSELATILDXEAARDFIAWLIEHKITD
HELM: PEPTIDE1{H.[Aib].E.G.T.F.S.S.E.L.A.T.I.L.D.K.E.A.A.R.D.F.I.A.W.L.I.E.H.K.I.T.D}|PEPTIDE2{[O=C(O)CCCCCCCCCCCCCCCCC(=O)[*:2]].[gGlu]}$PEPTIDE1,PEPTIDE2,16:R3-2:R2$$$V2.0
SMILES: CC[C@H](C)[C@H](NC(=O)[C@H](Cc1ccccc1)NC(=O)[C@H](CC(=O)O)NC(=O)[C@H](CCCNC(=N)N)NC(=O)[C@H](C)NC(=O)[C@H](C)NC(=O)[C@H](CCC(=O)O)NC(=O)[C@H](CCCCNC(=O)CC[C@H](NC(=O)CCCCCCCCCCCCCCCCC(=O)O)C(=O)O)NC(=O)[C@H](CC(=O)O)NC(=O)[C@H](CC(C)C)NC(=O)[C@@H](NC(=O)[C@@H](NC(=O)[C@H](C)NC(=O)[C@H](CC(C)C)NC(=O)[C@H](CCC(=O)O)NC(=O)[C@H](CO)NC(=O)[C@H](CO)NC(=O)[C@H](Cc1ccccc1)NC(=O)[C@@H](NC(=O)CNC(=O)[C@H](CCC(=O)O)NC(=O)C(C)(C)NC(=O)[C@@H](N)Cc1c[nH]cn1)[C@@H](C)O)[C@@H](C)O)[C@@H](C)CC)C(=O)N[C@@H](C)C(=O)N[C@@H](Cc1c[nH]c2ccccc12)C(=O)N[C@@H](CC(C)C)C(=O)N[C@H](C(=O)N[C@@H](CCC(=O)O)C(=O)N[C@@H](Cc1c[nH]cn1)C(=O)N[C@@H](CCCCN)C(=O)N[C@H](C(=O)N[C@H](C(=O)N[C@@H](CC(=O)O)C(=O)O)[C@@H](C)O)[C@@H](C)CC)[C@@H](C)CC
As to B1, the “EC50 GLP-2 (nM); cAMP response” value in test [1] amounted to 0.35 nM. Further, the “EC50 GLP-1 (nM); cAMP response” value in test [2] turned out to be 0.63 nM.

B2: Compound 2 (peptide)
peptide: HXEGSFTSELATILDXEAARDFIAWLIEHKITD
HELM: PEPTIDE1{H.[Aib].E.G.S.F.T.S.E.L.A.T.I.L.D.K.E.A.A.R.D.F.I.A.W.L.I.E.H.K.I.T.D}|PEPTIDE2{[O=C(O)CCCCCCCCCCCCCCCCC(=O)[*:2]].[gGlu]}$PEPTIDE1,PEPTIDE2,16:R3-2:R2$$$V2.0
SMILES: CC[C@H](C)[C@H](NC(=O)[C@H](Cc1ccccc1)NC(=O)[C@H](CC(=O)O)NC(=O)[C@H](CCCNC(=N)N)NC(=O)[C@H](C)NC(=O)[C@H](C)NC(=O)[C@H](CCC(=O)O)NC(=O)[C@H](CCCCNC(=O)CC[C@H](NC(=O)CCCCCCCCCCCCCCCCC(=O)O)C(=O)O)NC(=O)[C@H](CC(=O)O)NC(=O)[C@H](CC(C)C)NC(=O)[C@@H](NC(=O)[C@@H](NC(=O)[C@H](C)NC(=O)[C@H](CC(C)C)NC(=O)[C@H](CCC(=O)O)NC(=O)[C@H](CO)NC(=O)[C@@H](NC(=O)[C@H](Cc1ccccc1)NC(=O)[C@H](CO)NC(=O)CNC(=O)[C@H](CCC(=O)O)NC(=O)C(C)(C)NC(=O)[C@@H](N)Cc1c[nH]cn1)[C@@H](C)O)[C@@H](C)O)[C@@H](C)CC)C(=O)N[C@@H](C)C(=O)N[C@@H](Cc1c[nH]c2ccccc12)C(=O)N[C@@H](CC(C)C)C(=O)N[C@H](C(=O)N[C@@H](CCC(=O)O)C(=O)N[C@@H](Cc1c[nH]cn1)C(=O)N[C@@H](CCCCN)C(=O)N[C@H](C(=O)N[C@H](C(=O)N[C@@H](CC(=O)O)C(=O)O)[C@@H](C)O)[C@@H](C)CC)[C@@H](C)CC
For the molecule B2, the “EC50 GLP-2 (nM); cAMP response” value in test [1] stood at 0.25 nM. The “EC50 GLP-1 (nM); cAMP response” value in test [2] was 0.13 nM.

Turning to H-H[Aib]EGSFTSEK([AEEA-Lys-Glu-Lys-γGlu-C20 diacid])ATILDEQAARDFIAWLIEHKITD-OH [Compound 53], the “EC50 GLP-2 (nM); cAMP response” value in test [1] came to 0.24 nM. The “EC50 GLP-1 (nM); cAMP response” value in test [2] was determined as 0.076 nM.

Regarding H-H[Aib]EGSFTSELATILDK([AEEA-Lys-Glu-Lys-γGlu-C20 diacid])QAARDFIAWLIAHKITD-OH [Compound 58], in test [1], the “EC50 GLP-2 (nM); cAMP response” value stood at 0.09 nM. In test [2], the “EC50 GLP-1 (nM); cAMP response” value is 0.089 nM.

Consider H-H[Aib]EGTFSSELATILDK([AEEA-Lys-Glu-Lys-γGlu-C20 diacid])QAARDFIAWLIQHKITD-OH [Compound 48], for which the “EC50 GLP-2 (nM); cAMP response” value in test [1] was 0.054 nM. Moreover, in test [2], the “EC50 GLP-1 (nM); cAMP response” value came to 0.47 nM.

Turning to H-H[Aib]EGTFTSELATILDK([AEEA-Lys-Glu-Lys-γGlu-C20 diacid])QAARDFIAWLIEHKITD-OH [Compound 56], the “EC50 GLP-2 (nM); cAMP response” value in test [1] came out at 0.076 nM. Besides, in test [2], the “EC50 GLP-1 (nM); cAMP response” value turned out to be 0.033 nM.

For the molecule H-H[Aib]EGTFSSELATILDK([AEEA-Lys-Glu-Lys-γGlu-C20 diacid])QAARDFIAWLIEHKITD-OH [Compound 50], the “EC50 GLP-2 (nM); cAMP response” value in test [1] stood at 0.056 nM. The “EC50 GLP-1 (nM); cAMP response” value in test [2] was found to be 0.31 nM.

Take H-H[Aib]EGSFTSELATILDK([AEEA-Lys-Glu-Lys-γGlu-C20 diacid])QAARDFIAWLIEHKITD-OH [Compound 57]: in test [1], the “EC50 GLP-2 (nM); cAMP response” value was found to be 0.083 nM. The “EC50 GLP-1 (nM); cAMP response” value in test [2] worked out at 0.093 nM.

For the molecule H-H[Aib]EGTFTSELATILDK([Lys-Glu-Lys-γGlu-C20 diacid])QAARDFIAWLIQHKITD-OH [Compound 51], the “EC50 GLP-2 (nM); cAMP response” value in test [1] was found to be 0.18 nM. The “EC50 GLP-1 (nM); cAMP response” value in test [2] is 0.02 nM.

For the molecule HGDGSFSDEMNTILDNLAARDFINWLIQTKITD [Teduglutide], in test [2], the “EC50 GLP-1 (nM); cAMP response” value is 39 nM.

For the molecule H-H[Aib]EGTFSSELATILDK([AEEA-Lys-Glu-Lys-γGlu-C18 diacid])QAARDFIAWLIEHKITD-OH [Compound 49], the “EC50 GLP-2 (nM); cAMP response” value in test [1] came to 0.044 nM. Further, the “EC50 GLP-1 (nM); cAMP response” value in test [2] came to 0.27 nM.

H-H[Aib]EGTFTSELATILDK([AEEA-Lys-Glu-Lys-γGlu-C20 diacid])QAARDFIAWLIQHKITD-OH [Compound 52]: in test [1], the “EC50 GLP-2 (nM); cAMP response” value was found to be 0.075 nM. Also, in test [2], the “EC50 GLP-1 (nM); cAMP response” value is 0.02 nM.

Turning to H-H[Aib]EGSFTSELATILDK([AEEA-Lys-Glu-Lys-γGlu-C20 diacid])KAARDFIAWLIEHKITD-OH [Compound 59], the “EC50 GLP-2 (nM); cAMP response” value in test [1] was determined as 0.11 nM. Moreover, the “EC50 GLP-1 (nM); cAMP response” value in test [2] turned out to be 0.088 nM.

H-H[Aib]EGTFSSELATILDK([AEEA-Lys-Glu-Lys-γGlu-C18 diacid])QAARDFIAWLIQHKITD-OH [Compound 47]: the “EC50 GLP-2 (nM); cAMP response” value in test [1] came out at 0.048 nM. Further, the “EC50 GLP-1 (nM); cAMP response” value in test [2] is 0.44 nM.
